We go through one molecule from publication PMC5427846 (Scientific Reports, 2017).

The target in this test is T1, SecY without pBpa insertion (E. coli, UniProt P0AGA2 1-443).
T1 sequence (looked up): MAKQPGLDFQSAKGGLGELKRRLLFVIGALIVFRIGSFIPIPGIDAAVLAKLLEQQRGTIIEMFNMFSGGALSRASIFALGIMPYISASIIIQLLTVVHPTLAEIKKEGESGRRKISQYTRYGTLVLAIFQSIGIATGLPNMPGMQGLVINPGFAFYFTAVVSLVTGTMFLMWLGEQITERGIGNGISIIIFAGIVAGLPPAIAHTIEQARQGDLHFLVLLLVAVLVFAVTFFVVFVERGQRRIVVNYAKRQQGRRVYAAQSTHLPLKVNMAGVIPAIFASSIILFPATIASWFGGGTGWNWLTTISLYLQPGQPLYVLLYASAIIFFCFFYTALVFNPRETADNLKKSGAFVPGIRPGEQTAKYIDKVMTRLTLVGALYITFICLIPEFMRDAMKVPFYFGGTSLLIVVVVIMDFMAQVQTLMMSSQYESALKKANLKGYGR
Description: cell-based or functional assay.

B1: YidC (natural protein, UniProt P25714 1-548, looked up)
chain: MDSQRNLLVIALLFVSFMIWQAWEQDKNPQPQAQQTTQTTTTAAGSAADQGVPASGQGKLISVKTDVLDLTINTRGGDVEQALLPAYPKELNSTQPFQLLETSPQFIYQAQSGLTGRDGPDNPANGPRPLYNVEKDAYVLAEGQNELQVPMTYTDAAGNTFTKTFVLKRGDYAVNVNYNVQNAGEKPLEISSFGQLKQSITLPPHLDTGSSNFALHTFRGAAYSTPDEKYEKYKFDTIADNENLNISSKGGWVAMLQQYFATAWIPHNDGTNNFYTANLGNGIAAIGYKSQPVLVQPGQTGAMNSTLWVGPEIQDKMAAVAPHLDLTVDYGWLWFISQPLFKLLKWIHSFVGNWGFSIIIITFIVRGIMYPLTKAQYTSMAKMRMLQPKIQAMRERLGDDKQRISQEMMALYKAEKVNPLGGCFPLLIQMPIFLALYYMLMGSVELRQAPFALWIHDLSAQDPYYILPILMGVTMFFIQKMSPTTVTDPMQQKIMTFMPVIFTVFFLWFPSGLVLYYIVSNLVTIIQQQLIYRGLEKRGLHSREKKKS
B1: the “anion to cation permeability ratio r (PCl/PK) of the FtsQ-RNC-YidC-SecYEG complex” value came to 5.1.
